Data published in publication PMC11650997 (Journal of Virology, 2024).

Experiments:
Settings in all cases: both partners purified
[1] = target: T1, SARS-CoV-2 RBD (aa 334-527) (Severe acute respiratory syndrome …, UniProt P0DTC2); assay: SPR
T1 construct: also called recombinant RBD; monomeric RBD

[2] = target: T2, BM48-31 S protein ectodomain (Bat coronavirus BM48-31/BGR/2008 …); assay: ELISA; […], room temperature; […]
T2 construct: also called sarbecovirus BM48-31 S protein

[3] = target: WIV-1 S protein ectodomain (Bat SARS-like coronavirus WIV1 …, UniProt U5WI05); assay: ELISA; […], room temperature; […]
[4] = target: T3, HKU3-1 S protein ectodomain (Bat SARS coronavirus HKU3-1 (DQ022305), UniProt Q3LZX1); assay: ELISA; […], room temperature; […]
T3 construct: source: Drosophila S2 cells, secreted, purified (Strep-Tactin XT, Superose 6 SEC)

[5] = target: CoVZC45 S protein ectodomain (Bat SARS-like coronavirus CoVZC45 …, UniProt A0A2R3SUW7); assay: ELISA; […], room temperature; […]
[6] = target: RaTG13 S protein ectodomain (Bat coronavirus RaTG13 (MN996532), UniProt A0ABF7PLN6); assay: ELISA; […], room temperature; […]
[7] = target: RsSHC014 S protein ectodomain (Bat SARS-like coronavirus RsSHC014 …, UniProt U5WLK5); assay: ELISA; […], room temperature; […]

B1: pT1616 (human monoclonal antibody, IgG1) (antibody, V domains shown)
VH: QVQLVQSGAEVKKPGSSVKVSCKASGGTFSSYTISWVRQAPGQGLECMGRIIPILGIANYAQKFQGRVTITADKSTSIAYMEVSSLRSEDTAVYYCATEVGYSGYGSAEYFNHWGQGTPVTVSS
VL: QSVLTQPPSVSGAPGQRVTISCTGSNSNIGAGYDVHWYQQLPGTAPKLLIYANNNRPSGVPDRFSGSRSGTSASLVITGLQADDEADYYCQSYDSSLTGSLFGGGTKLTVL
notes: also called bnAb pT1616; nAb pT1616; source: HEK293ExPi, transfected, purified from the supernatant (Protein G, SEC)
- Kd [1]: 0.24 nM
- koff [1]: 0.00019 s⁻¹
- kon [1]: 780000 M⁻¹ s⁻¹

B2: pT1616 IgG1 (antibody, V domains shown)
VH: B1 VH
VL: B1 VL
notes: also called bnAb pT1616; nAb pT1616; source: HEK293ExPi, transfected, purified from supernatant (Protein G, SEC)
- binding result [2]: no binding (tested: 2 µg/mL antibody)
- binding result [3]: binds
- binding result [4]: binds
- binding result [5]: binds
- binding result [6]: binds
- binding result [7]: binds
